The record followed here is publication PMC8240853 (The Journal of Cell Biology, 2021).

The target in one experiment is WDR62 WD40 domain, 1-790 (UniProt O43379). In words: streptavidin pull-down, GFP Western blot. Conditions: reference: wild-type C3 fragment; sites T1053. In general terms: In western blotting, separated proteins are transferred to a membrane and probed.
In experiment [1] the target is microtubules of porcine brain tubulin (porcine) (UniProt P02550). In words: binding to microtubules in vitro.
A further experiment deals with Strep-p80 WD (UniProt Q8BG40 1-315). In words: pull-down.
Strep-p80 WD, sequence (Q8BG40 1-315): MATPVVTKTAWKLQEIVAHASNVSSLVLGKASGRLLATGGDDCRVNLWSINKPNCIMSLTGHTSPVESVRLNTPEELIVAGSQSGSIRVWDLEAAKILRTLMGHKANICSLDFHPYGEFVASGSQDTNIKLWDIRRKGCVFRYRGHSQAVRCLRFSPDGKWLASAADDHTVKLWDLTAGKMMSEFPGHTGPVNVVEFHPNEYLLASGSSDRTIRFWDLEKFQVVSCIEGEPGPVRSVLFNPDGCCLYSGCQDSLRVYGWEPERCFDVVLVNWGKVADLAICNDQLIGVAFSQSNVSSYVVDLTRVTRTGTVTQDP
A further experiment addresses T1, Strep-TagBFP-TPX2 (human, UniProt Q9ULW0-1 1-747).
T1 sequence: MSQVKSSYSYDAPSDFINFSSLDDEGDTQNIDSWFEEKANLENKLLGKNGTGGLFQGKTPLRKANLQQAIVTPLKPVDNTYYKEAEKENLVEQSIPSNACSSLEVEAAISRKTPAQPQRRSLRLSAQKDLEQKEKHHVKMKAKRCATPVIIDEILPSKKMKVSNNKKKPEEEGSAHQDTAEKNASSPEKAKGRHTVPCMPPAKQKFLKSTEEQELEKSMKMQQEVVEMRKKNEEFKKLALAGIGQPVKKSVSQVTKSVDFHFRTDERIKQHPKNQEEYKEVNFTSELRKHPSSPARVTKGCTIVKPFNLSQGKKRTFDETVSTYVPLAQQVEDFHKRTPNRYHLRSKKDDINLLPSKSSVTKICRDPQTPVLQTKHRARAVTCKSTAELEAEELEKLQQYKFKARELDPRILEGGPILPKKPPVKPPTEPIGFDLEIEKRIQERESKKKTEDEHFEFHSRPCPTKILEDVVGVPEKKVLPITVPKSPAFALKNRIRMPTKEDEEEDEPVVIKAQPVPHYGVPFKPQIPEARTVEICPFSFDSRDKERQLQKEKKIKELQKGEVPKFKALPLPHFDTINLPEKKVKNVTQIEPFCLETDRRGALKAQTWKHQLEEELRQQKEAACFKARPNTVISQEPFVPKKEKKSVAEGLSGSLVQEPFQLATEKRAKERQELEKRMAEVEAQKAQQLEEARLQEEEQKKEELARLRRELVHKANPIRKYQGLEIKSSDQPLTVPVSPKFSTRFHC
Nature of the experiment: recruitment to microtubules in vitro.

In a further experiment the target is WDR62 FL WT-GFP-Strep (human, UniProt O43379-4 1-1523). Nature of the experiment: recruitment to microtubules in vitro.

“And” between values parts separate entries of the source, which are not always exact repeats. Equal values may be shown once.

Consider “WDR62 C3, 1001-1523 (from UniProt O43379) C3 T1053A”, for which the “binding against the reference” value with WDR62 WD40 domain, 1-790 is recorded as “lost”.

As to “WDR62 WD-GFP-Strep (from UniProt O43379-4 1-790) (domain or fragment)”, the fold affinity for GMPCPP-stabilized MTs against the FL protein in experiment [1] was 4 fold and 5 fold.

In the experiment with WDR62-N2-GFP (human), “p60/TagBFP-p80 (from UniProt O43379-4;Q8BG40) (complex)” registered a breakage frequency of WDR62 N2-decorated curved MTs in live MRC5 cells of 95%.

Regarding “p60/TagBFP-p80 R615A (from UniProt O43379-4;Q8BG40) (complex)”, the breakage frequency of WDR62 N2-decorated curved MTs in live MRC5 cells with WDR62-N2-GFP (human) came to 95%.

Take LAFHAKRSYQPHGRWAERAGQEPLKTILDAQDLDCYFTPMKPES (domain or fragment) [trxA-6xHis-WDR62 M1]: the binding result with Strep-p80 WD was “binds”.

B1: Strep-GFP–Aurora A (natural protein)
chain: MDRSKENCISGPVKATAPVGGPKRVLVTQQFPCQNPLPVNSGQAQRVLCPSNSSQRIPLQAQKLVSSHKPVQNQKQKQLQATSVPHPVSRPLNNTQKSKQPLPSAPENNPEEELASKQKNEESKKRQWALEDFEIGRPLGKGKFGNVYLAREKQSKFILALKVLFKAQLEKAGVEHQLRREVEIQSHLRHPNILRLYGYFHDATRVYLILEYAPLGTVYRELQKLSKFDEQRTATYITELANALSYCHSKRVIHRDIKPENLLLGSAGELKIADFGWSVHAPSSRRTTLCGTLDYLPPEMIEGRMHDEKVDLWSLGVLCYEFLVGKPPFEANTYQETYKRISRVEFTFPDFVTEGARDLISRLLKHNPSQRPMLREVLEHPWITANSSKPSNCQNKESASKQS
As to B1, the binding result in the experiment with Strep-TagBFP-TPX2 was “binds”.

B2: TPX2/TagBFP–Aurora A complex (complex)
chain 1: T1 sequence
chain 2: B1 chain
On to B2, for which the binding result with WDR62 FL WT-GFP-Strep is listed as “binds”.
